Assay results taken from patent US20110091971A1, “Differentiation of Pluripotent Stem Cells” (priority 2008, published 2011).

Test system: Human Embryonic Stem Cells (H1 hESC line)
Test: RT-PCR of pancreatic differentiation markers at conclusion of step four of differentiation (Example 12)
Format: cell-based
Details: end of step four; relative to commercial activin A or ACTN1
Experimental: Step 4 of the differentiation protocol was carried out over three days. Cells were fed daily by aspirating the medium from each well and replacing with a fresh aliquot (0.5 ml) of DMEM-high glucose supplemented with 1% B27, 100 ng/ml Noggin, 100 ng/ml Netrin-4 (R&D Systems; Cat #), 1 μM DAPT, and 1 μM Alk 5 inhibitor (Axxora; Cat #ALX-270-445). At the conclusion of the fourth step of differentiation, cells from some wells were harvested for analysis by RT-PCR to measure markers of differentiation.
RT-PCR Analysis: RNA samples were purified by binding to a silica-gel membrane (Rneasy Mini Kit, Qiagen, CA) in the presence of an ethanol-containing, high-salt buffer followed by washing to remove contaminants. The RNA was further purified using a TURBO DNA-free kit (Ambion, INC), and high-quality RNA was then eluted in water. Yield and purity were assessed by A260 and A280 readings on a spectrophotometer. […]
Unless otherwise stated, all reagents were purchased from Applied Biosystems. […] For each primer/probe set, a Ct value was determined as the cycle number at which the fluorescence intensity reached a specific value in the middle of the exponential region of amplification. Relative gene expression levels were calculated using the comparative Ct method. […] The normalized amount of target was calculated as 2-ΔCt, assuming amplification to be 100% efficiency. […]

B1: ACTN4: activin A variant peptide, SEQ ID 5 (protein)
chain: GLECDGKVNLCCKKQLFVSFKDIGWNDWIIAPSGYHANHCSGLCPSHIAGTSGSSLSFHSTVINHYRMRGHSPFSDMGACCVPTKLRPMSMLYYDDGQNIIKKDIQNMIVEECGCS
Q: How did the “expression of downstream pancreatic differentiation markers (RT-PCR)” value turn out when B1 was run?
A: comparable expression

B2: ACTN48: activin A variant peptide, SEQ ID 49 (protein)
chain: GLECDGKVNLCCKKQNFVSFKDIGWNDWIIAPSGYHANECSGLCPSHIAGTSGSSLSFHSTVINHYRMRGHSPFANMGACCIPTKLRPMSMLYYDDGQNIIKKDIQNMIVEECGCS
Q: With B2 as the molecule, how does the “expression of downstream pancreatic differentiation markers (RT-PCR)” value read?
A: comparable expression
